Laboratory results published in the supplement of paper PMC9233669.
This sample holds only a part of the variants without activity.

Columns and labels:
biotinyl-Phe-oxazolone = assay: self-aminoacylation, catalytic enhancement (BFO) (fold over background); higher = more active; k-Seq, kA / k0A0; sequences stand for … in GGGAAUGGAUCCACAUCUACGAAUUC…UUCACUGCAGACUUGACGAAGCUG
In short: (§1)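 Mutagenized RNA pools with a 21-nt variable region (0.43 μM) reacted with each biotinyl-aminoacyl-oxazolone at 2–1250 μM. Reactions ran in 50 μL HEPES/NaCl/KCl/MgCl2/CaCl2 buffer with 5% acetonitrile, pH 6.9–7.0, for 90 minutes at room temperature. Streptavidin-captured RNA was quantified by triplicate qPCR and Illumina sequencing, and per-sequence fraction reacted was fit to a pseudo-first-order model with 1000 bootstraps. Catalytic enhancement is median kA divided by the uncatalyzed rate, the low-activity peak of a bimodal Gaussian fit.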

biotinyl-Trp-oxazolone = assay: self-aminoacylation, catalytic enhancement (BWO) (fold over background); higher = more active; k-Seq, kA / k0A0; sequences stand for … in GGGAAUGGAUCCACAUCUACGAAUUC…UUCACUGCAGACUUGACGAAGCUG
In short: as §1

biotinyl-Ile-oxazolone = assay: self-aminoacylation, catalytic enhancement (BIO) (fold over background); higher = more active; k-Seq, kA / k0A0; sequences stand for … in GGGAAUGGAUCCACAUCUACGAAUUC…UUCACUGCAGACUUGACGAAGCUG
In short: as §1

biotinyl-Leu-oxazolone = assay: self-aminoacylation, catalytic enhancement (BLO) (fold over background); higher = more active; k-Seq, kA / k0A0; sequences stand for … in GGGAAUGGAUCCACAUCUACGAAUUC…UUCACUGCAGACUUGACGAAGCUG
In short: as §1

biotinyl-Met-oxazolone = assay: self-aminoacylation, catalytic enhancement (BMO) (fold over background); higher = more active; k-Seq, kA / k0A0; sequences stand for … in GGGAAUGGAUCCACAUCUACGAAUUC…UUCACUGCAGACUUGACGAAGCUG
In short: as §1

biotinyl-Val-oxazolone = assay: self-aminoacylation, catalytic enhancement (BVO) (fold over background); higher = more active; k-Seq, kA / k0A0; sequences stand for … in GGGAAUGGAUCCACAUCUACGAAUUC…UUCACUGCAGACUUGACGAAGCUG
In short: as §1

| Sequence | self-aminoacylation (biotinyl-Phe-oxazolone) | self-aminoacylation (biotinyl-Trp-oxazolone) | self-aminoacylation (biotinyl-Ile-oxazolone) | self-aminoacylation (biotinyl-Leu-oxazolone) | self-aminoacylation (biotinyl-Met-oxazolone) | self-aminoacylation (biotinyl-Val-oxazolone) |
| --- | --- | --- | --- | --- | --- | --- |
| AAGUUUGCUAAUCGUCACAAG [Fam3.1 aminoacylation ribozyme variant] | 1.3 | 0.982 | 0.966 | 0.881 | 0.828 | 0.978 |
| AAGUUUGCUAAUCGUCGCACG [Fam3.1 aminoacylation ribozyme variant] | 0.692 | 0.937 | 0.983 | 1.16 | 0.842 | 0.873 |
| AAGUUUGCUAAUCGUCGCAUG [Fam3.1 aminoacylation ribozyme variant] | 0.667 | 0.804 | 1.03 | 0.957 | 0.922 | 0.923 |
| AAGUUUGCUAAUCGUGGCAAG [Fam3.1 aminoacylation ribozyme variant] | 0.796 | 0.625 | 0.713 | 0.521 | 0.604 | 0.813 |
| AAGUUUGCUAAUCGUUGCAAG [Fam3.1 aminoacylation ribozyme variant] | 1.13 | 0.987 | 0.834 | 0.77 | 0.824 | 0.881 |
| AAGUUUGCUAAUGGUCGGAAG [Fam3.1 aminoacylation ribozyme variant] | 1.55 | 0.587 | 0.861 | 0.849 | 0.811 | 0.91 |
| AAGUUUGCUAAUUGGCGCAAG [Fam3.1 aminoacylation ribozyme variant] | 2.62 | 0.714 | 0.829 | 1.1 | 0.964 | 0.935 |
| AAGUUUGCUAAUUGUCCCAAG [Fam3.1 aminoacylation ribozyme variant] | 2.16 | 1.01 | 1.28 | 0.999 | 1.15 | 1.21 |
| AAGUUUGCUACUACUCGCAAG [Fam3.1 aminoacylation ribozyme variant] | 0.639 | 0.621 | 0.565 | 0.791 | 0.647 | 0.855 |
| AAGUUUGCUACUAGCCGCAAG [Fam3.1 aminoacylation ribozyme variant] | 1.27 | 0.996 | 0.746 | 0.51 | 0.786 | 0.638 |
| AAGUUUGCUACUAGUCGCAAC [Fam3.1 aminoacylation ribozyme variant] | 0.697 | 0.917 | 0.737 | 0.763 | 0.845 | 0.874 |
| AAGUUUGCUACUAGUCGCCAG [Fam3.1 aminoacylation ribozyme variant] | 0.986 | 1.91 | 1.27 | 0.749 | 1.26 | 1.1 |
| AAGUUUGCUACUAGUCUCAAG [Fam3.1 aminoacylation ribozyme variant] | 1.11 | 0.988 | 0.827 | 0.77 | 0.914 | 0.818 |
| AAGUUUGCUAGGAGUCGCAAG [Fam3.1 aminoacylation ribozyme variant] | 0.649 | 1.02 | 0.788 | 0.459 | 0.673 | 0.745 |
| AAGUUUGCUAGUACUCGCAAG [Fam3.1 aminoacylation ribozyme variant] | 0.836 | 0.574 | 0.894 | 0.773 | 0.907 | 0.878 |
| AAGUUUGCUAGUAGCCGCAAG [Fam3.1 aminoacylation ribozyme variant] | 1.34 | 0.972 | 1.16 | 1.09 | 0.787 | 0.797 |
| AAGUUUGCUAGUAGUCGCAUG [Fam3.1 aminoacylation ribozyme variant] | 0.822 | 1.4 | 0.903 | 0.808 | 0.737 | 0.873 |
| AAGUUUGCUAGUAGUCGCGAG [Fam3.1 aminoacylation ribozyme variant] | 3.65 | 2.01 | 1.27 | 1.25 | 1.08 | 1.54 |
| AAGUUUGCUAUCAGUCGCAAG [Fam3.1 aminoacylation ribozyme variant] | 1.37 | 0.615 | 0.794 | 0.733 | 0.865 | 0.931 |
| AAGUUUGCUAUUAGACGCAAG [Fam3.1 aminoacylation ribozyme variant] | 1.08 | 0.55 | 0.577 | 0.691 | 0.712 | 0.894 |
| AAGUUUGCUAUUAGUCGAAAG [Fam3.1 aminoacylation ribozyme variant] | 1.06 | 0.825 | 1.07 | 0.914 | 1.18 | 0.834 |
